5 molecules from publication PMC10700433 (Cancer Immunology, Immunotherapy : CII, 2023) can be followed below.

Test [1] addresses T1, ATOR-1017 (evunzekibart) (human).
T1 construct: as the VH of Wm14, which is in PDB 8OZ3 (amino acids 2-118 modelled); human IgG4 heavy chain constant region, S228P stabilised; as the VL of Wm14, which is in PDB 8OZ3 (amino acids 2-110 modelled); light chain constant region; IgG4 (S228P)
The experiment in a line: BLI; Octet RED96; antibodies captured on FABG2 biosensor tips, recombinant FcRn in solution; association studied at physiological pH, dissociation at pH6. The conditions noted are these: both partners purified. A general note: In BLI a coated tip is dipped into the sample, and binding shifts an interference pattern.

Test [2] deals with T1, ATOR-1017 (evunzekibart). The experiment in a line: BLI; Octet RED96; antibodies captured on FABG2 biosensor tips, recombinant Fcγ receptors in solution at suitable concentration ranges; association and dissociation at physiological pH. The note with it: both partners purified.
For test [3], the target named is T2, cynomolgus 4-1BB/TNFRSF9-His (Macaca fascicularis, UniProt A9YYE7).
T2 construct: cynomolgus 4-1BB (TNFRSF9), recombinant His-tagged protein from Acro; source: bought: Acro
In words: BLI; Octet Red96 (ForteBio); who was immobilised not stated. The note with it: both partners purified.

Another test deals with T3, human CD137-His (Homo sapiens, UniProt Q07011).
T3 construct: human 4-1BB (CD137, TNFRSF9), recombinant His-tagged protein from Acro; also called human 4-1BB; TNFRSF9; source: bought: Acro
The test is described as above. The conditions noted are these: both partners purified.

The target of test [4] is T4, cynomolgus 4-1BB expressed on CHO-K1 cells (Macaca fascicularis, UniProt A9YYE7).
T4 construct: cynomolgus 4-1BB (TNFRSF9) from a gene in pcDNA3.1 (GenScript); also called CHO-cy4-1BB; cy4-1BB-CHO; source: CHO-K1, stably transfected (pcDNA3.1), on cells
The experiment in a line: flow cytometry on cells; CHO-K1 cells stably expressing human or cynomolgus 4-1BB incubated with serially diluted ATOR-1017; detected with goat anti-hIg Fc-PE; MFI. The note with it: one partner purified.

Test [5] concerns the target T5, human 4-1BB expressed on CHO-K1 cells (human, UniProt Q07011).
T5 construct: human 4-1BB (CD137, TNFRSF9) from a gene in pcDNA3.1 (GenScript); also called CHO-hu4-1BB; hu4-1BB-CHO; source: CHO-K1, stably transfected (pcDNA3.1), on cells
The test is described as above. The conditions noted are these: one partner purified.

T5 sequence (Q07011 24-255): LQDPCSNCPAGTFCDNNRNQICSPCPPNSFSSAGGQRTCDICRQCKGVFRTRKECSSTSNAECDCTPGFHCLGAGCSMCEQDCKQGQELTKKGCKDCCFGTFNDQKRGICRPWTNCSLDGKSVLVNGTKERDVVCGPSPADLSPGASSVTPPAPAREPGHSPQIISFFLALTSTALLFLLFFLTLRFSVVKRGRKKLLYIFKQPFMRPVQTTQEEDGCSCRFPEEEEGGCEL
T3 sequence (Q07011 24-186): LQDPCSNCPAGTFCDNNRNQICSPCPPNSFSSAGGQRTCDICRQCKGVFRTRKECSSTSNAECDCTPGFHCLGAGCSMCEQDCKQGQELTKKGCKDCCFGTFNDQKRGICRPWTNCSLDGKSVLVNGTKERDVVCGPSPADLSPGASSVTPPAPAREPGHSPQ

B1: mouse FcRn (receptor)
chain 1: SETRPPLMYHLTAVSNPSTGLPSFWATGWLGPQQYLTYNSLRQEADPCGAWMWENQVSWYWEKETTDLKSKEQLFLEALKTLEKILNGTYTLQGLLGCELASDNSSVPTAVFALNGEEFMKFNPRIGNWTGEWPETEIVANLWMKQPDAARKESEFLLNSCPERLLGHLERGRRNLEWKEPPSMRLKARPGNSGSSVLTCAAFSFYPPELKFRFLRNGLASGSGNCSTGPNGDGSFHAWSLLEVKRGDEHHYQCQVEHEGLAQPLTVDLDSSARSS
chain 2: IQKTPQIQVYSRHPPENGKPNILNCYVTQFHPPHIEIQMLKNGKKIPKVEMSDMSFSKDWSFYILAHTEFTPTETDTYACRVKHASMAEPKTVYWDRDM
modifications: soluble Fcgrt/B2m heterodimer assumed by convention; B2m not given
As a reminder, the Kd is a measure of binding affinity in units of concentration. As to B1, the Kd with ATOR-1017 (evunzekibart) [1] came to 200 nM.

B2: mouse FcγRIV (receptor)
chain: GLQKAVVNLDPKWVRVLEEDSVTLRCQGTFSPEDNSIKWFHNESLIPHQDANYVIQSARVKDSGMYRCQTALSTISDPVQLEVHMGWLLLQTTKWLFQEGDPIHLRCHSWQNRPVRKVTYLQNGKGKKYFHENSELLIPKATHNDSGSYFCRGLIGHNNKSSASFRISLGDPGSPSMFPPWHQ
modifications: soluble ectodomain assumed for BLI
For B2, in the test with ATOR-1017 (evunzekibart) [2], the Kd worked out at 400 nM.

B3: mouse FcγRIII (receptor)
chain: ALPKAVVKLDPPWIQVLKEDMVTLMCEGTHNPGNSSTQWFHNGRSIRSQVQASYTFKATVNDSGEYRCQMEQTRLSDPVDLGVISDWLLLQTPQRVFLEGETITLRCHSWRNKLLNRISFFHNEKSVRYHHYKSNFSIPKANHSHSGDYYCKGSLGSTQHQSKPVTITVQDPATTSSISLVWYHT
modifications: soluble ectodomain assumed for BLI
As for B3, the Kd in the test with ATOR-1017 (evunzekibart) [2] worked out at 100 nM.

B4: ATOR-1017 (evunzekibart) (antibody, V domains shown)
VH: EVQLLESGGGLVQPGGSLRLSCAASGFNFGYSYMSWVRQAPGKGLEWVSSIGSTSSHTYYADSVKGRFTISRDNSKNTLYLQMNSLRAEDTAVYYCARVYSSPGIDYWGQGTLVTVSS
VL: DIQMTQSPSSLSASVGDRVTITCRASQSIGSTLNWYQQKPGKAPKLLIYGASSLQSGVPSRFSGSGSGTDFTLTISSLQPEDFATYYCQQYYTWVPFTFGQGTKLEIK
notes: the variable domains stand in the scFv of PDB 8OZ3 (heavy chain amino acids 2-118 modelled); human IgG4 constant part, S228P stabilized; the variable domains stand in the scFv of PDB 8OZ3 (light chain amino acids 2-110 modelled); light chain constant domain; IgG4 (S228P); variable domains from the human scFv library ALLIGATOR-GOLD, optimized
As a reminder, the EC50 is the midpoint of the concentration-response curve. With B4, the Kd in test [3] is 0.2 nM; in the test with human CD137-His it was 0.1 nM. In addition, the EC50 in test [4] and in test [5] was 0.5 nM in each case.

B5: mouse FcγRIIb (receptor)
chain: THDLPKAVVKLEPPWIQVLKEDTVTLTCEGTHNPGNSSTQWFHNGRSIRSQVQASYTFKATVNDSGEYRCQMEQTRLSDPVDLGVISDWLLLQTPQLVFLEGETITLRCHSWRNKLLNRISFFHNEKSVRYHHYSSNFSIPKANHSHSGDYYCKGSLGRTLHQSKPVTITVQGPKSSRSLP
modifications: soluble ectodomain assumed for BLI
Consider B5, for which the Kd in the test with ATOR-1017 (evunzekibart) [2] came to 300 nM.
